Series [1] relates to TbRpf2 (coexpressed, untagged);(His)6-TbRrs1 (coexpressed) (Trypanosoma brucei;Trypanosoma brucei). Put plainly: filter binding. The conditions noted are these: coexpressed complex; Filter binding with radiolabeled 5S rRNA, triplicate; buffer, salt, pH and temperature not given (as in ref 9).
In series [2] the test system is SUMO-TbRrs1 (Trypanosoma brucei). The series is described as follows: filter binding. The note with it: Filter binding with radiolabeled 5S rRNA, triplicate; buffer, salt, pH and temperature not given (as in ref 9).
Series [3] concerns (His)6-TbRpf2 (Trypanosoma brucei). Put plainly: filter binding. The conditions noted are these: without TbRrs1; text also cites ref 11; Filter binding with radiolabeled 5S rRNA, triplicate; buffer, salt, pH and temperature not given (as in ref 9).
Series [4] has as its target recombinant P34 (T. brucei). Put plainly: co-IP; recombinant TbRrs1 incubated with recombinant P34, TbL5 or TbRpf2, precipitated with anti-P34, anti-L5 or anti-Rpf2 antibody, with or without in vitro-transcribed 5S rRNA; anti-His Western blot of pellet and supernatant.
The target of series [5] is recombinant TbRpf2 (T. brucei). The series is described as above.
The target of series [6] is recombinant TbL5 (T. brucei). The series is described as above.
In series [7] the target is P34/P37 (trypanosome-specific proteins). The series is described as follows: co-IP; whole-cell extract of 10×-Ty-TbRrs1 T. brucei cells, beads with anti-P34/P37, anti-TbL5 or anti-TbRpf2 antibody, anti-Ty Western blot of pellet and supernatant; without RNase A.
The target of series [8] is TbL5 (T. brucei homologue of ribosomal protein L5), endogenous (T. brucei (endogenous in 10×-Ty-TbRrs1 cells)). Described as above.
Series [9] has as its target TbRpf2 (T. brucei homologue of Rpf2), endogenous (T. brucei (endogenous in 10×-Ty-TbRrs1 cells)). The series is described as above.
For series [10], the target named is P34/P37 (trypanosome-specific proteins). Put plainly: co-IP; whole-cell extract of 10×-Ty-TbRrs1 T. brucei cells, beads with anti-P34/P37, anti-TbL5 or anti-TbRpf2 antibody, anti-Ty Western blot of pellet and supernatant; cellular RNA digested with RNase A. For orientation: Immunoblotting shows a protein as a band on a membrane.
Series [11] addresses TbL5 (T. brucei homologue of ribosomal protein L5), endogenous (T. brucei (endogenous in 10×-Ty-TbRrs1 cells)). The description is as above.
Series [12] addresses TbRpf2 (T. brucei homologue of Rpf2), endogenous (T. brucei (endogenous in 10×-Ty-TbRrs1 cells)). The series is described as above.

For T. brucei 5S rRNA, the Kd (as a rule, the equilibrium constant for the complex coming apart) in [1] came out at 17.5 nM; in [2], 54.4 nM; in series [3] it was 17 nM.

Take “SUMO-TbRrs1 (recombinant) (natural protein)”: the values for the amount in the pellet relative to pellet plus supernatant, with 5S rRNA in [4], in [5] and in series [6] were 0.71, 0.65 and 0.74, respectively. Also, the results for the amount in the pellet relative to pellet plus supernatant, without 5S rRNA in series [4], in [5] and in series [6] were 0.77, 0.53 and 0.78, respectively.

Consider “10×-Ty-TbRrs1 (Trypanosoma brucei homologue of regulator of ribosome synthesis 1, Ty-tagged at one copy of the gene) (natural protein)”, for which the amount in the pellet relative to pellet plus supernatant in [7] stood at 0.06; in series [8] it was 0.24; in series [9] it was 0.02; in series [10] it was 0.61; in series [11] it was 0.63; in series [12] it was 0.58.

(Values after publication PMC6686231.)
